Like-named read-outs stand apart in the source and are kept apart here.

Assay [1] concerns PC-9 non-small cell lung cancer cells. As to the kind of experiment: PC-9 subcutaneous tumors in NSG mice, daily erlotinib. It counts as in vivo. Conditions: erlotinib alone, 25 mg/kg orally daily; day 20. On the procedure:
(§1) 5×10exp6 PC-9 non-small cell lung cancer cells were injected subcutaneously in Nod scid gamma (NSG) mice. […] Erlotinib in 6% captisol was dosed orally daily at 25 mg/kg; IGFBP3Fc (3(del3)3) was dosed intraperitoneally at 25 mg/kg three times per week; control animals were administered vehicle. Dosing was started on day 11; erlotinib and erlotinib plus D3 was discontinued on day 19; D3 injections were discontinued on day 22.

Assay [2] deals with hep3B cells. The experiment in a line: hep3B proliferation assay. The class given is cell-based, human. The conditions noted are these: Homo sapiens, Hep3B, FIG. 15, read-out: IC50 of erlotinib to EGFR-wildtype hep3B cells. The method, then:
For the proliferation assay, cells except for HUVEC were seeded at a density of 1,000 to 6,000 in 96 wells in an assay buffer of DMEM/F12 plus 0.2% BSA and 10 ug/ml transferrin. Chemical inhibitors were added after 16-20 hours after plating; IGF-1 or other growth factors or test chimeras in assay buffer were added at the time of plating or 16-20 hours after plating. 5,000 HUVEC ells were plated in poly-L-lysine coated 96 wells in M199 with 1%/FBS and HEPES. After 3 to 4 days of culture, growth was determined by incubating cells with Alamar blue for 4 to 6 hours and then the fluorescence (RFU) at 544/590 nm was read. For long term proliferation assays, cells were plated in the growth media with 5% or 10% FBS at densities of 500 to 10,000 cells per cm^2 growth area and grown for 7 to 21 days. Inhibitors and effectors were added 1-4 days after plating. Cells were exposed to cisplatin or gemcitabine for two days. Medium was renewed twice weekly. At completion, cells were fixed and then stained with Giemsa.
The human hepatoma cell line hep3B could be stimulated by many growth factors including IGF-1, IGF-2, HGF, bFGF, VEGF, and neuregulin.

In assay [3] the test system is PC-9 tumors. The experiment in a line: PC-9 subcutaneous tumors in mice, low dose erlotinib. The class given is in vivo. Conditions: erlotinib 25 mg/kg 3 times per week; FIG. 27. The method, then:
as §1
Subcutaneous PC-9 tumors were generated and measured as above. Chimera D3 was dosed as above; erlotinib was dosed at 25 mg/kg 3 times per week in order to examine the effect of the chimera D3 on the tumor growth with suboptimal erlotinib dosing. The treatment started on day 8 and ended on day 22.

The target of assay [4] is T1, nrgEGF (amino acids Thr176-Lys246 of neuregulin-beta 1) (Homo sapiens, UniProt Q02297).
T1 construct: Thr176-Lys246 of neuregulin-beta 1; purchased R&D Sciences or SinoBiologicals
T1 sequence (Q02297 176-246 isoform Q02297-6): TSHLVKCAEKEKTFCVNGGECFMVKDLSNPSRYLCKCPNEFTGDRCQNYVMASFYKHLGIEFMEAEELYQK
As to the kind of experiment: Biacore binding to nrgEGF. The method, then:
(§2) Biacore binding was performed at David Myszka's laboratory at the University of Utah or at the Genomic Research Center at Academia Sinica. Surfaces of binding protein chimera were made via chemical immobilization on a CM4 chip using standard amine coupling chemistry. […] Excess surface carboxyl activated sites on all four flow cells was blocked using the doubly positively charged species ethylenediamine. Binding experiments (but not immobilizations) in HBS-P (10 mM HEPES pH 7.4, 150 mM NaCl, 0.05% P20), The HBS-P was supplemented with BSA at 0.2 mg/mL, or HBS-P was supplemented with 500 mM NaCl (650 mM NaCl, final concentration). Analytes were also reconstituted in the corresponding buffer. All experiments were performed at 25° C. 1/150 dilutions of phosphoric acid were used to regenerate IGFBP3-Fc surfaces and a sequence of 3 M MgCl2 followed by 5 M GuCl was used to regenerate surfaces immobilized with growth factor. Dissociation constants reported below used immobilized binding protein unless noted. Differences between binding constants may be expected between growth factor immobilization and chimera immobilization.
In this example, erbB4 domain 1 was attached to the N-terminus of the recombinant IGFBP3-Fc or the recombinant IGFBP3-v1v2-Fc.

The target in assay [5] is T2, bFGF (Homo sapiens, UniProt P09038).
T2 construct: purchased R&D Sciences or SinoBiologicals
The experiment in a line: Biacore binding to bFGF. Also noted: key: +: sufficient to bind; −: unable to bind. Conditions: tested in .65M NaCL. On the procedure:
as §2
For orientation: In SPR one partner is held on a chip, and binding of the other changes the refractive index at the surface.

The target of assay [6] is T3, IGF-1 (Homo sapiens, UniProt P05019).
T3 construct: purchased R&D Sciences or SinoBiologicals
The experiment in a line: Biacore binding to IGF-1. Also noted: key to growth factor binding, igf1: +: sufficient to bind; −: unable to bind. Conditions: tested in .65M NaCL. The method, then:
as §2

Assay [7] deals with nrgbx. As to the kind of experiment: Biacore binding to nrgbx. Also noted: key: +: sufficient to bind; −: unable to bind. Conditions: tested in .65M NaCL. The method, then:
as §2

The target in assay [8] is T4, IGF-2 (Homo sapiens, UniProt P01344).
T4 construct: purchased R&D Sciences or SinoBiologicals
As to the kind of experiment: Biacore binding to IGF-2. More on the design: key: +: sufficient to bind; −: unable to bind. Conditions: tested in .65M NaCL. The method, then:
as §2

Assay [9] concerns the target T5, PDGF AB (Homo sapiens, UniProt P01127+P04085).
T5 construct: purchased R&D Sciences or SinoBiologicals
As to the kind of experiment: Biacore binding to PDGF AB. Conditions: tested in .65M NaCL. Also noted: key: +: sufficient to bind; −: unable to bind. The method, then:
as §2

Assay [10] deals with T6, VEGF B (Homo sapiens, UniProt P49765).
T6 construct: purchased R&D Sciences or SinoBiologicals
T6 sequence (P49765 22-207): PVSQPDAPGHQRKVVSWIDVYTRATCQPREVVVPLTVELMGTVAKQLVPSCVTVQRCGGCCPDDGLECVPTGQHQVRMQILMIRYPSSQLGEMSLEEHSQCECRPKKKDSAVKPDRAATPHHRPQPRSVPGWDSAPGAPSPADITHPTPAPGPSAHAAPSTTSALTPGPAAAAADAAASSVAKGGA
As to the kind of experiment: Biacore binding to VEGF B. More on the design: key: +: sufficient to bind; −: unable to bind. Conditions: tested in .65M NaCL. On the procedure: as §2

T2 sequence (P09038 143-288): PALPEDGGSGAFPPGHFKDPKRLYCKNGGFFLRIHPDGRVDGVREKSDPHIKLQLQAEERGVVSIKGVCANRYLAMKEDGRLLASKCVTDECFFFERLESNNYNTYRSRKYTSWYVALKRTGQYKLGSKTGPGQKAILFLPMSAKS
T5 sequence (P01127 82-190 limits assumed, other chains not shown): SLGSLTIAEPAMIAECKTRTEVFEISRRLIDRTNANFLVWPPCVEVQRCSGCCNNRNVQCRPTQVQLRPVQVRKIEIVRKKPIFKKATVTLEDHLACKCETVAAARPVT
T4 sequence (P01344 25-91): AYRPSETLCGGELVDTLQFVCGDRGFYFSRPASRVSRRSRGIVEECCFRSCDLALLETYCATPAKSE
T3 sequence (P05019 49-118 limits assumed): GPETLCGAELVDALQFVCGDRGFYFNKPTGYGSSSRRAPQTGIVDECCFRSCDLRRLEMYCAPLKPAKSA

For `C#Cc1cccc(Nc2ncnc3cc(OCCOC)c(OCCOC)cc23)c1` [erlotinib, reference compound], in assay [1], the “tumor volume of treated to control (T/C)” value is 38%. For the same molecule, the IC50 (in general, the concentration that gives 50% inhibition) in [2] (cells not treated with chimera h3t33Fc) was approximately 10000 nM; in [2] (with the addition of 100 nM chimera h3t33Fc), approximately 100 nM. In addition, the “tumor regression with intermittent dosing” value in assay [3] is recorded as “did not cause the tumor regression”.

B1: IGFBP3-v1v2-erbB4-Fc: ErbB4-GS-IGFBP3-gly 3 linker-v1v2-Fc, SEQ ID NO: 20 (protein)
chain: MSEVPVARVWLVLLLLTVQVGVTAGVQPSDSQSVCAGTENKLSSLSDLEQQYRALRKYYENCEVVMGNLEITSIEHNRDLSFLRSVREVTGYVLVALNQFRYLPLENLRIIRGTKLYEDRYALAIFLNYRKDGNFGLQELGLKNLTEILNGGVYVDQNKFLCYADTIHWQDIVRNPWPSNLTLVSTNGSSGCGRCHKSCTGRCWGPTENHCQTLTRTVGGGGSGGGGSGGGGSGGGGSGGGGGASSAGLGPVVRCEPCDARALAQCAPPPAVCAELVREPGCGCCLTCALSEGQPCGIYTERCGSGLRCQPSPDEARPLQALLDGRGLCVNASAVSKGHAKDSQRYKVDYESQSTDTQNFSSESKRETEYGPCRREMEDTLNHLKFLNVLSPRGVHIPNCDKKGFYKKKQCRPSKGRKRGFCWCVDKYGQPLPGYTTKGKEDVHCYSMQSKAPPAPGNASESEEDRSAGIYIFISDTGRPFVEMYSEIPEIIHMTEGRELVIPCRVTSPNITVTLKKFPLDTLIPDGKRIIWDSRKGFIISNATYKEIGLLTCEATVNGHLYKTNYLTHRQGYRIYDVVLSPSHGIELSVGEKLVLNCTARTELNVGIDFNWEYPSSKHQHKKLVNRDLKTQSGSEMKKFLSTLTIDGVTRSDQGLYTCAASSGLMTKKNSTFVRVHEKVECPPCPAPPVAGPSVFLFPPKPKDQLMISRTPEVTCVVVDVSHEDPEVKFNWYVDGVEVHNAKTKPREEQYNSTYRVVSVLTVLHQDWLNGKEYKCKVSNKGLPSSIEKTISKAKGQPREPQVYTLPPSREEMTKNQVSLTCLVKGFYPSDIAVEWESNGQPENNYKTTPPVLDSDGSFFLYSKLTVDKSRWQQGNVFSCSVMHEGLHNHYTQKSLSLSPGK
For B1, the Kd (commonly the equilibrium constant for the complex coming apart) in [4] was determined as 11 nM.

B2: 4142: SEQ ID NO: 24; the N-terminus only (protein)
chain: MSEVPVARVWLVLLLLTVQVGVTAGGASSAGLGPVVRCEPCDARALAQCAPPPAVCAELVREPGCGCCLTCALSEGQPCGIYTERCGSGLRCQPSPDEARPLQALLDGRGLCVNASAVSVECPPCPAPPVAGPSVFLFPPKPKDQLMISRTPEVTCVVVDVSHEDPEVKFNWYVDGVEVHNAKTKPREEQYNSTYRVVSVLTVLHQDWLNGKEYKCKVSNKGLPSSIEKTISKAKGQPREPQVYTLPPSREEMTKNQVSLTCLVKGFYPSDIAVEWESNGQPENNYKTTPPVLDSDGSFFLYSKLTVDKSRWQQGNVFSCSVMHEGLHNHYTQKSLSLSPGK
As for B2, in [5], the “growth factor binding, bFGF” value was “−”. Further, the “growth factor binding, igf1” value in assay [6] is “+”. Besides, the “growth factor binding, nrgbx” value in assay [7] was “−”. In assay [8], the “growth factor binding, igf2” value is recorded as “+”. For the same molecule, the “growth factor binding, PDGF AB” value in assay [9] is “−”. In addition, in assay [10], the “growth factor binding, VEGF B” value is “−”.

B3: 4382: SEQ ID NO: 25; the complete link region (protein)
chain: MSEVPVARVWLVLLLLTVQVGVTAGGASSAVNASAVSRLRAYLLPAPPAPGNASESEEDRSAGSVESPSVSSTHRVSDPKFHPLHSKIIIIKKGHAKDSQRYKVDYESQSTDTQNFSSESKREVECPPCPAPPVAGPSVFLFPPKPKDQLMISRTPEVTCVVVDVSHEDPEVKFNWYVDGVEVHNAKTKPREEQYNSTYRVVSVLTVLHQDWLNGKEYKCKVSNKGLPSSIEKTISKAKGQPREPQVYTLPPSREEMTKNQVSLTCLVKGFYPSDIAVEWESNGQPENNYKTTPPVLDSDGSFFLYSKLTVDKSRWQQGNVFSCSVMHEGLHNHYTQKSLSLSPGK
For the molecule B3, the “growth factor binding, bFGF” value in assay [5] is “−”. For the same molecule, the “growth factor binding, igf1” value in [6] was “−”. Moreover, the “growth factor binding, nrgbx” value in [7] was “−”. In assay [8], the “growth factor binding, igf2” value was “−”. The “growth factor binding, PDGF AB” value in assay [9] is recorded as “−”. Further, the “growth factor binding, VEGF B” value in [10] is “−”.

B4: 4141: SEQ ID NO: 23; a fragment comprising the N-terminus and the linker region from h3t33 (protein)
chain: MSEVPVARVWLVLLLLTVQVGVTAGGASSAGLGPVVRCEPCDARALAQCAPPPAVCAELVREPGCGCCLTCALSEGQPCGIYTERCGSGLRCQPSPDEARPLQALLDGRGLCVNASAVSKGHAKDSQRYKVDYESQSTDTQNFSSESKRETEYVECPPCPAPPVAGPSVFLFPPKPKDQLMISRTPEVTCVVVDVSHEDPEVKFNWYVDGVEVHNAKTKPREEQYNSTYRVVSVLTVLHQDWLNGKEYKCKVSNKGLPSSIEKTISKAKGQPREPQVYTLPPSREEMTKNQVSLTCLVKGFYPSDIAVEWESNGQPENNYKTTPPVLDSDGSFFLYSKLTVDKSRWQQGNVFSCSVMHEGLHNHYTQKSLSLSPGK
Regarding B4, in [5], the “growth factor binding, bFGF” value is “+”. In addition, in assay [6], the “growth factor binding, igf1” value is reported as “+”. The “growth factor binding, nrgbx” value in [7] is given as “+”. In addition, in assay [8], the “growth factor binding, igf2” value is “+”. In assay [9], the “growth factor binding, PDGF AB” value was “+”. In addition, the “growth factor binding, VEGF B” value in assay [10] is recorded as “+”.

The record behind these values is patent US11254722B2, “Recombinant proteins and uses thereof” (ACADEMIA SINICA, priority 2017, dated 2022).
